Measurements reported in patent publication US20100197575A1, “SOLUBLE INTERLEUKIN-20 RECEPTOR” (ZymoGenetics, Inc., published 2010).

B1: IL-20RA/IL-20RB heterodimeric receptor (receptor)
chain 1: VPCVSGGLPKPANITFLSINMKNVLQWTPPEGLQGVKVTYTVQYFIYGQKKWLNKSECRNINRTYCDLSAETSDYEHQYYAKVKAIWGTKCSKWAESGRFYPFLETQIGPPEVALTTDEKSISVVLTAPEKWKRNPEDLPVSMQQIYSNLKYNVSVLNTKSNRTWSQCVTNHTLVLTWLEPNTLYCVHVESFVPGPPRRAQPSEKQCARTLKDQSSEFKAKIIFWYVLPISITVFLFSVMGYSIYRYIHVGKEKHPANLILIYGNEFDKRFFVPAEKIVINFITLNISDDSKISHQDMSLLGKSSDVSSLNDPQPSGNLRPPQEEEEVKHLGYASHLMEIFCDSEENTEGTSFTQQESLSRTIPPDKTVIEYEYDVRTTDICAGPEEQELSLQEEVSTQGTLLESQAALAVLGPQTLQYSYTPQLQDLDPLAQEHTDSEEGPEEEPSTTLVDWDPQTGRLCIPSLSSFDQDSEGCEPSEGDGLGEEGLLSRLYEEPAPDRPPGENETYLMQFMEEWGLYVQMEN
chain 2: DEVAILPAPQNLSVLSTNMKHLLMWSPVIAPGETVYYSVEYQGEYESLYTSHIWIPSSWCSLTEGPECDVTDDITATVPYNLRVRATLGSQTSAWSILKHPFNRNSTILTRPGMEITKDGFHLVIELEDLGPQFEFLVAYWRREPGAEEHVKMVRSGGIPVHLETMEPGAAYCVKAQTFVKAIGRYSAFSQTECVEVQGEAIPLVLALFAFVGFMLILVVVPLFVWKMGRLLQYSCCPVVVLPDTLKITNSPQKLISCRREEVDACATAVMSPEELLRAWIS

Key:
[1] = target: IL-20RA/IL-20RB heterodimeric receptor (human)
[2] = target: IL-20RA/IL-20RB heterodimeric receptor (human); remark: listed apart in the source
[3] = target: IL-20RA/IL-20RB heterodimeric receptor (human); remark: listed apart in the source
[4] = target: IL-20RA/IL-20RB heterodimeric receptor (human); remark: listed apart in the source
[5] = target: IL-20RA/IL-20RB heterodimeric receptor (human); remark: listed apart in the source
125I-labeled IL-20 = target: T1, 125I-labeled IL-20 (Homo sapiens (Human), UniProt Q9NYY1, 125I-labeled); assay: radiolabeled ligand binding to BHK cells stably transfected with IL-20RA and IL-20RB
T1 sequence: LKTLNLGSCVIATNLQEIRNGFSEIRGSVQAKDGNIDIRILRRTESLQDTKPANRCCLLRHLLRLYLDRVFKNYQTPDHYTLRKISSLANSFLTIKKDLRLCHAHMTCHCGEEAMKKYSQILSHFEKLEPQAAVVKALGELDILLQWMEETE
Procedure: The specificity and affinity of IL-20 for its receptor was determined using BHK cells stably transfected with IL-20RA, IL-20RB or both receptor subunits. […] Binding of ¹²⁵I-labeled IL-20 was eliminated in the presence of 100-fold excess of unlabeled IL-20 but not with 100-fold excess of the unrelated cytokine, IL-21.

Molecule | half-maximal response, STAT-luciferase in BHK cells transfected with both receptor subunits [1] [pM] | half-maximal response, luciferase reporter in HaCaT cells, IL-20 in combination with a submaximal dose of IL-1beta [2] [nM] | half maximal response, SRE/STAT luciferase reporter in HaCaT cells [3] [nM] | half-maximal IL-20 concentration, STAT3 nuclear translocation in HaCaT cells [4] [nM] | half maximal response, proliferation of BaF3 cells co-transfected with IL-20RA and IL-20RB [5] [pM] | proliferation of BaF3 cells co-transfected with IL-20RA and IL-20RB [5] [pM] | Kd (125I-labeled IL-20) [nM]
Interleukin-20 (IL-20) (from UniProt Q9NYY1) (ligand) | 5.7 | 0.5 | 2.3 | 7 | 3.4 | 1.1 | 
B1 |  |  |  |  |  |  | ~1.5
